Blank lines part the entries; values can stand above or below the binder they belong to.
How the values were obtained:
[1] = target: T1, insulin-like growth factor-1 receptor (IGF-1R) (human, UniProt P08069 31-1367); test: cell-based or functional assay
[2] = target: T1, insulin-like growth factor-1 receptor …; test: cell-based or functional assay; remark: listed apart in the source
[3] = target: T1, insulin-like growth factor-1 receptor …; test: saturation radioligand binding on IGF-1R expressing A431 cells, 4 °C, specific binding fitted to single-site model
Experimental: The purpose of this assay was to ensure that these new radioconjugates maintained binding characteristics consistent with the native antibody in an IGF-1R expressing A431 cell line. Twenty-four hours prior to the start of the experiment, 1.5×10^5 A431 cells were seeded in 48-well microplates in 500 μl supplemented medium. The radioconjugate was diluted with binding buffer (PBS+0.5% BSA) to a range of concentrations from 0.08 nM to 40 nM; final assay concentration 0.04 to 20 nM. At the start of the assay, the media is aspirated, discarded and 500 μl of serum-free DMEM was added to each well. The plates were incubated at 37° C. for 1 hour. Following incubation, media was aspirated from each well and discarded. The cells were washed and 100 μl of binding buffer (total binding assay) or, for non-specific binding assay, 4 μM cold-antibody was added to designated wells. Plates were incubated at 4° C. for 1 hour with mild shaking. Following the blocking step, 100 μl of radioimmunoconjugate was added to each well. The plates were then incubated at 4° C. for 2 hours. Following incubation, the contents of each well was aspirated and discarded. The cells were washed twice with PBS and were then lysed with 1% Triton-X-100. The lysates were transferred to counting tubes and run with radioconjugate standards on the Wizard 1470 gamma counter to determine the radioactivity content (in counts per minute (CPM)) for each lysate. The remaining lysate from each well (25 μl) was transferred to a 96-well plate, and the protein content of each lysate determined using a standard protein quantification assay. Total, non-specific and specific ligand binding determinations, mass of bound conjugate in each lysate were calculated by converting lysate CPM to fmol bound using the specific activity of the conjugate standards and then normalizing the fmol bound to the protein content of each lysate (in milligrams). Specific binding was determined by subtracting the non-specific binding from total binding. […]

[4] = target: T1, insulin-like growth factor-1 receptor …; test: saturation radioligand binding on A431 epidermoid carcinoma cells
Experimental: The plates were incubated at 37° C. for 1 h. Following incubation, media was aspirated from each well and discarded. The cells were washed and 100 µl of binding buffer (total binding) or 4 µM cold-antibody (non-specific binding) added to designated wells. Plates were incubated at 4° C. for 1 h with mild shaking. Following the blocking step, 100 µl of labeled conjugate was added to each well. The plates were then incubated at 4° C. for 2 h. Following incubation, the contents of each well was aspirated and discarded. The cells were washed twice with PBS and were then lysed with 1% Triton-X-100. The lysates were transferred to counting tubes and run with labeled conjugate standards on the Wizard 1470 gamma counter to determine the radioactivity content (in counts per minute (CPM)) for each lysate. The remaining lysate from each well (25 µl) was transferred to a 96-well plate, and the protein content of each lysate determined using a standard protein quantification assay. Total, non-specific and specific ligand binding determinations, mass of bound conjugate in each lysate were calculated by converting lysate CPM to fmol bound using the specific activity of the conjugate standards and then normalizing the fmol bound to the protein content of each lysate (in milligrams). Specific binding was determined by subtracting the non-specific binding from total binding. […]

[5] = target: T1, insulin-like growth factor-1 receptor …; test: saturation radioligand binding on A549 cells (NSCLC)
Experimental: (§1) Twenty-four hours prior to the start of the experiment, 1.5 ×10^5 cells were seeded in 48-well microplates in 500 µl supplemented medium. The radiolabeled conjugate was diluted with binding buffer (PBS+0.5% BSA) to a range of concentrations from 0.08 nM to 40 nM; final assay concentration 0.04 to 20 nM. At the start of the assay, the media is aspirated, discarded and 500 µl of serum-free DMEM was added to each well. The plates were incubated at 37° C. for 1 h. Following incubation, media was aspirated from each well and discarded. The cells were washed and 100 µl of binding buffer (total binding) or 4 µM cold-antibody (non-specific binding) added to designated wells. […] The lysates were transferred to counting tubes and run with labeled conjugate standards on the Wizard 1470 gamma counter to determine the radioactivity content (in counts per minute (CPM)) for each lysate. The remaining lysate from each well (25 µl) was transferred to a 96-well plate, and the protein content of each lysate determined using a standard protein quantification assay. Total, non-specific and specific ligand binding determinations, mass of bound conjugate in each lysate were calculated by converting lysate CPM to fmol bound using the specific activity of the conjugate standards and then normalizing the fmol bound to the protein content of each lysate (in milligrams). […]

[6] = target: T1, insulin-like growth factor-1 receptor …; test: saturation radioligand binding on H226 cells (NSCLC)
Experimental: as §1

[7] = target: T1, insulin-like growth factor-1 receptor …; test: saturation radioligand binding on PC-3 cells (prostate)
Experimental: as §1

[8] = target: T1, insulin-like growth factor-1 receptor …; test: saturation radioligand binding on LnCaP cells (prostate)
Experimental: as §1

[9] = target: T1, insulin-like growth factor-1 receptor …; test: saturation radioligand binding on Du-145 cells (prostate)
Experimental: as §1

[10] = target: T1, insulin-like growth factor-1 receptor …; test: saturation radioligand binding on BxPC3 cells (pancreatic)
Experimental: as §1

[11] = target: T1, insulin-like growth factor-1 receptor …; test: saturation radioligand binding on MiaPaca-II cells (pancreatic)
Experimental: as §1

[12] = target: T1, insulin-like growth factor-1 receptor …; test: saturation radioligand binding on A431 cells (epidermoid carcinoma)
Experimental: as §1

T1 sequence (P08069 31-1367): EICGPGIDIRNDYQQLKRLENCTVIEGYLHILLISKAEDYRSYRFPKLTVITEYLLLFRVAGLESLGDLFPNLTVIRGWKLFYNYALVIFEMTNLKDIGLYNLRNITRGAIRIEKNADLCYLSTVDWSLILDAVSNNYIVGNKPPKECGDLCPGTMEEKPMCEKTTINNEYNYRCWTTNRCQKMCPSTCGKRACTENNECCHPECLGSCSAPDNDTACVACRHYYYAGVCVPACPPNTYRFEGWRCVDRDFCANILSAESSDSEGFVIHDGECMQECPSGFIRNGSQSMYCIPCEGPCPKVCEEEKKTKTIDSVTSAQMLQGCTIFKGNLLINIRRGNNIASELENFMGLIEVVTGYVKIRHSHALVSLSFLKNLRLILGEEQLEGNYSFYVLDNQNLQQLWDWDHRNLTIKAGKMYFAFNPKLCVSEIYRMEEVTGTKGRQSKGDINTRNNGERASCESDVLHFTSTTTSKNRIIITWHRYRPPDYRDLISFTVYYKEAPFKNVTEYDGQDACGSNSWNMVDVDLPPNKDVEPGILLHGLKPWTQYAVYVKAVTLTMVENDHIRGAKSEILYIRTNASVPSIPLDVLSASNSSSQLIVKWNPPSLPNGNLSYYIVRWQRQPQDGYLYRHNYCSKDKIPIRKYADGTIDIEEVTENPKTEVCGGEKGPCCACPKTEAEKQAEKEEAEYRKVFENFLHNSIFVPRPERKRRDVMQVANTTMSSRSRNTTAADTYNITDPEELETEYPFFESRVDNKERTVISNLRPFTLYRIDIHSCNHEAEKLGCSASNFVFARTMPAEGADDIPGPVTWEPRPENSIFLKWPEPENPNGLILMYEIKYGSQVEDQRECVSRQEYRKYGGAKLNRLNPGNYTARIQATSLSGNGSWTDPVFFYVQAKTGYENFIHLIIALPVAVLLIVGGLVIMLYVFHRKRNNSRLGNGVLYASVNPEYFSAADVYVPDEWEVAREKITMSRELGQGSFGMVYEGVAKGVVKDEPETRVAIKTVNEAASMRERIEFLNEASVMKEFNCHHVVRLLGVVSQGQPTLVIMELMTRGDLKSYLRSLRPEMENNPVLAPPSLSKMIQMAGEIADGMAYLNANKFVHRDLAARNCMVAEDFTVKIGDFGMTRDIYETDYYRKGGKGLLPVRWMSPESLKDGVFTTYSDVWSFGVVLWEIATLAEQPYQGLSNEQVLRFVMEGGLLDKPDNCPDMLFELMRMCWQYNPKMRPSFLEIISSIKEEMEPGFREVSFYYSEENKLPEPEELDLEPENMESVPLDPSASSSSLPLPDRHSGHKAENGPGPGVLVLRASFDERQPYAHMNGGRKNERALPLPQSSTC

B1: HuMIGF-1R (AVE1642) (antibody, human IgG1, kappa)
light: DVVMTQTPLSLPVSLGDPASISCRSSQSIVHSNVNTYLEWYLQKPGQSPRLLIYKVSNRFSGVPDRFSGSGAGTDFTLRISRVEAEDLGIYYCFQGSHVPPTFGGGTKLEIKRTVAAPSVFIFPPSDEQLKSGTASVVCLLNNFYPREAKVQWKVDNALQSGNSQESVTEQDSKDSTYSLSSTLTLSKADYEKHKVYACEVTHQGLSSPVTKSFNRGEC
heavy: not shown
Conjugate Potency (IC50; µg/mL): inhibition of IGF-1 ligand stimulated autophosphorylation of IGF-1R in A431 cells, phospho-IGF-1R ELISA; degree of substitution 0 DOTA/mAb (native antibody) [1]: 0.04 µg/mL
Compound Potency (IC50; µg/mL): inhibition of IGF-1 ligand stimulated autophosphorylation of IGF-1R in A431 cells, phospho-IGF-1R ELISA [2]: 0.04 µg/mL

B2: [^177Lu]-Compound A-HuMIGF-1R (antibody)
light: DVVMTQTPLSLPVSLGDPASISCRSSQSIVHSNVNTYLEWYLQKPGQSPRLLIYKVSNRFSGVPDRFSGSGAGTDFTLRISRVEAEDLGIYYCFQGSHVPPTFGGGTKLEIKRTVAAPSVFIFPPSDEQLKSGTASVVCLLNNFYPREAKVQWKVDNALQSGNSQESVTEQDSKDSTYSLSSTLTLSKADYEKHKVYACEVTHQGLSSPVTKSFNRGEC
heavy: not shown
modifications: Compound A (DOTA-GA anhydride) chelate conjugated to the antibody, sites not stated; chelate loaded with 177Lu
notes: also called Commercial Standard
Kd [3]: 2.9 nM

B3: [^111In]-Compound C-HuMIGF-1R (antibody)
light: DVVMTQTPLSLPVSLGDPASISCRSSQSIVHSNVNTYLEWYLQKPGQSPRLLIYKVSNRFSGVPDRFSGSGAGTDFTLRISRVEAEDLGIYYCFQGSHVPPTFGGGTKLEIKRTVAAPSVFIFPPSDEQLKSGTASVVCLLNNFYPREAKVQWKVDNALQSGNSQESVTEQDSKDSTYSLSSTLTLSKADYEKHKVYACEVTHQGLSSPVTKSFNRGEC
heavy: not shown
modifications: Compound C (DOTA-GA with PEG3 linker, TFP ester) conjugated to the antibody, sites not stated; chelate loaded with 111In
Compound Potency (IC50; µg/mL): inhibition of IGF-1 ligand stimulated autophosphorylation of IGF-1R in A431 cells, phospho-IGF-1R ELISA [2]: 0.19 µg/mL
Kd [4]: 6.9 nM

Other lines, results leading:

Kd [3]: 2 nM
B4: [^177Lu]-Compound B-HuMIGF-1R (antibody)
light: DVVMTQTPLSLPVSLGDPASISCRSSQSIVHSNVNTYLEWYLQKPGQSPRLLIYKVSNRFSGVPDRFSGSGAGTDFTLRISRVEAEDLGIYYCFQGSHVPPTFGGGTKLEIKRTVAAPSVFIFPPSDEQLKSGTASVVCLLNNFYPREAKVQWKVDNALQSGNSQESVTEQDSKDSTYSLSSTLTLSKADYEKHKVYACEVTHQGLSSPVTKSFNRGEC
heavy: not shown
modifications: Compound B (DOTA-GA with undecanoyl linker, TFP ester) conjugated to the antibody, sites not stated; chelate loaded with 177Lu

Compound Potency (IC50; µg/mL): inhibition of IGF-1 ligand stimulated autophosphorylation of IGF-1R in A431 cells, phospho-IGF-1R ELISA [2]: 0.04 µg/mL
Kd [5]: 0.7 nM
Kd [6]: 2.3 nM
Kd [7]: 1.7 nM
Kd [8]: 1.6 nM
Kd [9]: 3 nM
Kd [10]: 2.9 nM
Kd [11]: 1.9 nM
Kd [12]: 2.2 nM
Kd [3]: 2.2 nM
B5: [^177Lu]-Compound C-HuMIGF-1R (antibody)
light: DVVMTQTPLSLPVSLGDPASISCRSSQSIVHSNVNTYLEWYLQKPGQSPRLLIYKVSNRFSGVPDRFSGSGAGTDFTLRISRVEAEDLGIYYCFQGSHVPPTFGGGTKLEIKRTVAAPSVFIFPPSDEQLKSGTASVVCLLNNFYPREAKVQWKVDNALQSGNSQESVTEQDSKDSTYSLSSTLTLSKADYEKHKVYACEVTHQGLSSPVTKSFNRGEC
heavy: not shown
modifications: Compound C (DOTA-GA with PEG3 linker, TFP ester) conjugated to the antibody, sites not stated; chelate loaded with 177Lu
